# Test results from patent publication US20110250130A1 (AbbVie / Abbott, published 2011).
# Columns and labels:
# [1] = biological target: T1, Recombinant Human TNF-α/TNFSF1A (human, UniProt P01375 77-233); assay: SPR (Biacore), antibody captured, TNF-α in solution
# T1 construct: Bought reagent (R&D Systems 210-TA); also called hTNF-α; huTNF-α
# Method: The BIACORE assay (Biacore, Inc. Piscataway, N.J.) determines the affinity of antibodies with kinetic measurements of on-rate and off-rate constants. Binding of antibodies to a target antigen (for example, a purified recombinant target antigen) is determined by surface plasmon resonance-based measurements with a Biacore® 1000 or 3000 instrument (Biacore® AB, Uppsala, Sweden) using running HBS-EP (10 mM HEPES [pH 7.4], 150 mM NaCl, 3 mM EDTA, and 0.005% surfactant P20) at 25° C. All chemicals are obtained from Biacore® AB (Uppsala, Sweden) or otherwise from a different source as described in the text. For example, approximately 5000 RU of goat anti-mouse IgG, (Fcγ), fragment specific polyclonal antibody (Pierce Biotechnology Inc, Rockford, Ill., US) diluted in 10 mM sodium acetate (pH 4.5) is directly immobilized across a CM5 research grade biosensor chip using a standard amine coupling kit according to manufacturer's instructions and procedures at 25 μg/ml. Unreacted moieties on the biosensor surface are blocked with ethanolamine. Modified carboxymethyl dextran surface in flowcell 2 and 4 is used as a reaction surface. Unmodified carboxymethyl dextran without goat anti-mouse IgG in flow cell 1 and 3 is used as the reference surface. For kinetic analysis, rate equations derived from the 1:1 Langmuir binding model are fitted simultaneously to association and dissociation phases of all eight injections (using global fit analysis) with the use of Biaevaluation 4.0.1 software. Purified antibodies are diluted in HEPES-buffered saline for capture across goat anti-mouse IgG specific reaction surfaces. Antibodies to be captured as a ligand (25 μg/ml) are injected over reaction matrices at a flow rate of 5 μl/minute. The association and dissociation rate constants, kₒₙ (M⁻¹s⁻¹) and koff (s⁻¹), are determined under a continuous flow rate of 25 μl/minute. Rate constants are derived by making kinetic binding measurements at different antigen concentrations ranging from 10-200 nM. The equilibrium dissociation constant (M) of the reaction between antibodies and the target antigen is then calculated from the kinetic rate constants by the following formula: KD=koff/kₒₙ. Binding is recorded as a function of time and kinetic rate constants are calculated. In this assay, on-rates as fast as 10⁶ M⁻¹s⁻¹ and off-rates as slow as 10⁻⁶ s⁻¹ can be measured.
# [2] = biological target: T1, Recombinant Human TNF-α/TNFSF1A; assay: cell-based or functional assay
# T1 sequence (P01375 77-233 limits assumed): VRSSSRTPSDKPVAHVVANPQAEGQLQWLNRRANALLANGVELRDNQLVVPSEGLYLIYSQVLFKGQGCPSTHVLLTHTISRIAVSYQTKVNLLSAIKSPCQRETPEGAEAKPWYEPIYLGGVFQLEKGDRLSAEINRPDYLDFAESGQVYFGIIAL
Binder,Kd [1] [nM],koff [1] [s⁻¹],kon [1] [M⁻¹ s⁻¹],"TNF-α neutralization assay IC50 (nM), L929 cells [2] [nM]"
"AB256 (antibody, V domains shown, also called hMAK195VH.2a / hMAK195VL.1) VH: EVQLVESGGGLVQPGGSLRLSCAVSGFTLSDYGVNWVRQAPGKGLEWLGMIWGDGSTDYDSTLKSRLTISKDNSKSTIYLQMNSLRAEDTAVYYCAREWHHGPVAYWGQGTLVTVSS VL: DIQMTQSPSSLSASVGDRVTITCKASQAVSSAVAWYQQKPGKAPKLLIYWASTRHTGVPSRFSGSGSGTDFTLTISSLQPEDFATYYCQQHYSTPFTFGQGTKLEIK",0.0505,0.000177,3.54e+06,0.058
"AB262 (antibody, V domains shown, also called hMAK195VH.2b / hMAK195VL.2) VH: EVQLVESGGGLVQPGGSLRLSCAASGFTLSDYGVNWVRQAPGKGLEWVSMIWGDGSTDYDSTLKSRFTISKDNSKNTLYLQMNSLRAEDTAVYYCAREWHHGPVAYWGQGTLVTVSS VL: EIVMTQSPATLSLSPGERATLSCKASQAVSSAVAWYQQKPGQAPRLLIYWASTRHTGIPARFSGSGSGTDFTLTISSLQPEDFAVYYCQQHYSTPFTFGQGTKLEIK",0.136,0.00029,2.14e+06,0.218
"AB255 (antibody, V domains shown, also called hMAK195VH.2 / hMAK195VL.2a) VH: EVQLVESGGGLVQPGGSLRLSCAASGFTFSDYGVNWVRQAPGKGLEWVSMIWGDGSTDYDSTLKSRFTISRDNSKNTLYLQMNSLRAEDTAVYYCAREWHHGPVAYWGQGTLVTVSS VL: EIVMTQSPATLSLSPGERATLSCKASQAVSSAVAWYQQKPGQSPRLLIYWASTRHTGVPARFSGSGSGTDFTLTISSLQPEDFAVYYCQQHYSTPFTFGQGTKLEIK",0.148,0.000384,2.62e+06,0.477
"AB254 (antibody, V domains shown, also called hMAK195VH.2 / hMAK195VL.2) VH: EVQLVESGGGLVQPGGSLRLSCAASGFTFSDYGVNWVRQAPGKGLEWVSMIWGDGSTDYDSTLKSRFTISRDNSKNTLYLQMNSLRAEDTAVYYCAREWHHGPVAYWGQGTLVTVSS VL: EIVMTQSPATLSLSPGERATLSCKASQAVSSAVAWYQQKPGQAPRLLIYWASTRHTGIPARFSGSGSGTDFTLTISSLQPEDFAVYYCQQHYSTPFTFGQGTKLEIK",0.12,0.000287,2.4e+06,0.799

# Now from value to binder:
Kd [1] [nM],koff [1] [s⁻¹],kon [1] [M⁻¹ s⁻¹],"TNF-α neutralization assay IC50 (nM), L929 cells [2] [nM]",Binder
0.122,0.000285,2.36e+06,0.187,"AB261 (antibody, V domains shown, also called hMAK195VH.2b / hMAK195VL.1a) VH: EVQLVESGGGLVQPGGSLRLSCAASGFTLSDYGVNWVRQAPGKGLEWVSMIWGDGSTDYDSTLKSRFTISKDNSKNTLYLQMNSLRAEDTAVYYCAREWHHGPVAYWGQGTLVTVSS VL: DIQMTQSPSSLSASVGDRVTITCKASQAVSSAVAWYQQKPGKSPKLLIYWASTRHTGVPSRFSGSGSGTDFTLTISSLQPEDFATYYCQQHYSTPFTFGQGTKLEIK"
0.062,0.000217,3.56e+06,0.077,"AB257 (antibody, V domains shown, also called hMAK195VH.2a / hMAK195VL.1a) VH: EVQLVESGGGLVQPGGSLRLSCAVSGFTLSDYGVNWVRQAPGKGLEWLGMIWGDGSTDYDSTLKSRLTISKDNSKSTIYLQMNSLRAEDTAVYYCAREWHHGPVAYWGQGTLVTVSS VL: DIQMTQSPSSLSASVGDRVTITCKASQAVSSAVAWYQQKPGKSPKLLIYWASTRHTGVPSRFSGSGSGTDFTLTISSLQPEDFATYYCQQHYSTPFTFGQGTKLEIK"
0.0816,0.000244,3.04e+06,0.078,"AB258 (antibody, V domains shown, also called hMAK195VH.2a / hMAK195VL.2) VH: EVQLVESGGGLVQPGGSLRLSCAVSGFTLSDYGVNWVRQAPGKGLEWLGMIWGDGSTDYDSTLKSRLTISKDNSKSTIYLQMNSLRAEDTAVYYCAREWHHGPVAYWGQGTLVTVSS VL: EIVMTQSPATLSLSPGERATLSCKASQAVSSAVAWYQQKPGQAPRLLIYWASTRHTGIPARFSGSGSGTDFTLTISSLQPEDFAVYYCQQHYSTPFTFGQGTKLEIK"
